# Test results published in publication PMC9636267 (2022).
# Like-named read-outs stand apart in the source and are kept apart here.
# B1: HCoV-229E S ectodomain (17–1115 aa), 229E S trimer (domain or fragment)
# chain: QTTNGLNTSYSVCNGCVGYSENVFAVESGGYIPSDFAFNNWFLLTNTSSVVDGVVRSFQPLLLNCLWSVSGLRFTTGFVYFNGTGRGDCKGFSSDVLSDVIRYNLNFEENLRRGTILFKTSYGVVVFYCTNNTLVSGDAHIPFGTVLGNFYCFVNTTIGNETTSAFVGALPKTVREFVISRTGHFYINGYRYFTLGNVEAVNFNVTTAETTDFCTVALASYADVLVNVSQTSIANIIYCNSVINRLRCDQLSFDVPDGFYSTSPIQSVELPVSIVSLPVYHKHTFIVLYVDFKPQSGGGKCFNCYPAGVNITLANFNETKGPLCVDTSHFTTKYVAVYANVGRWSASINTGNCPFSFGKVNNFVKFGSVCFSLKDIPGGCAMPIVANWAYSKYYTIGSLYVSWSDGDGITGVPQPVEGVSSFMNVTLDKCTKYNIYDVSGVGVIRVSNDTFLNGITYTSTSGNLLGFKDVTKGTIYSITPCNPPDQLVVYQQAVVGAMLSENFTSYGFSNVVELPKFFYASNGTYNCTDAVLTYSSFGVCADGSIIAVQPRNVSYDSVSAIVTANLSIPSNWTTSVQVEYLQITSTPIVVDCSTYVCNGNVRCVELLKQYTSACKTIEDALRNSARLESADVSEMLTFDKKAFTLANVSSFGDYNLSSVIPSLPTSGSRVAGRSAIEDILFSKLVTSGLGTVDADYKKCTKGLSIADLACAQYYNGIMVLPGVADAERMAMYTGSLIGGIALGGLTSAVSIPFSLAIQARLNYVALQTDVLQENQKILAASFNKAMTNIVDAFTGVNDAITQTSQALQTVATALNKIQDVVNQQGNSLNHLTSQLRQNFQAISSSIQAIYDRLDTIQADQQVDRLITGRLAALNVFVSHTLTKYTEVRASRQLAQQKVNECVKSQSKRYGFCGNGTHIFSIVNAAPEGLVFLHTVLLPTQYKDVEAWSGLCVDGTNGYVLRQPNLALYKEGNYYRITSRIMFEPRIPTMADFVQIENCNVTFVNISRSELQTIVPEYIDVNKTLQELSYKLPNYTVPDLVVEQYNQTILNLTSEISTLENKSAELNYTVQKLQTLIDNINSTLVDLKWLNRVETYIKWP
# Columns and labels:
# Assay in all cases: SPR
# R14 [1] = target: R14
# R17 [2] = target: R17
# S10 [3] = target: S10
# R10 [4] = target: R10
# S02 [5] = target: S02
# S15 [6] = target: S15
# S08 [7] = target: S08
# R07 [8] = target: R07
# R14 [9] = target: R14; remark: listed apart in the source
# R17 [10] = target: R17; remark: listed apart in the source
# S10 [11] = target: S10; remark: listed apart in the source
# R10 [12] = target: R10; remark: listed apart in the source
# S02 [13] = target: S02; remark: listed apart in the source
# S15 [14] = target: S15; remark: listed apart in the source
# S08 [15] = target: S08; remark: listed apart in the source
# R07 [16] = target: R07; remark: listed apart in the source
# [17] = target: B1
# [18] = target: T1, HCoV-229E RBD (294–435 aa) (human coronavirus 229E, UniProt P15423 294-435)
# T1 chain: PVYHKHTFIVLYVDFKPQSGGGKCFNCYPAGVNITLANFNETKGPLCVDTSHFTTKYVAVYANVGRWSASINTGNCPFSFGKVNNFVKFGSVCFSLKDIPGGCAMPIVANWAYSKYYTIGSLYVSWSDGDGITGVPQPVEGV
# [19] = target: B1
# [20] = target: T2, HCoV-229E S1 subunit (17–560 aa) (human coronavirus 229E, UniProt P15423 17-560)
# T2 chain: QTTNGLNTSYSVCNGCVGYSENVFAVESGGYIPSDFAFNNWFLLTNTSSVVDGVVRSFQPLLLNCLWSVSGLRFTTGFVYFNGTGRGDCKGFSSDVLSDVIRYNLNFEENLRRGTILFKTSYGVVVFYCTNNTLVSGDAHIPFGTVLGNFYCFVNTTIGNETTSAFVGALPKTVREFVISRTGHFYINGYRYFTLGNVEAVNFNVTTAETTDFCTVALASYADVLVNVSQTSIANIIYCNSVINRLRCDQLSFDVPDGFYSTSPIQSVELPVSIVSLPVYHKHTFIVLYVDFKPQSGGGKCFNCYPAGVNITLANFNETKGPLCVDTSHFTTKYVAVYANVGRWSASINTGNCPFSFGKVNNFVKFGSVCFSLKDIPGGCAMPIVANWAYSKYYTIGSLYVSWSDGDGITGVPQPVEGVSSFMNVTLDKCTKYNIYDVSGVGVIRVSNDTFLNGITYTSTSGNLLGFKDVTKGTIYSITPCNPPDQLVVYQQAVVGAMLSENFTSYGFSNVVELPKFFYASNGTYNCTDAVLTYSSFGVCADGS
# [21] = target: T1, HCoV-229E RBD (294–435 aa)
# [22] = target: T2, HCoV-229E S1 subunit (17–560 aa)
# [23] = target: T1, HCoV-229E RBD (294–435 aa)
# [24] = target: B1
# [25] = target: T1, HCoV-229E RBD (294–435 aa)
# [26] = target: B1
# [27] = target: T1, HCoV-229E RBD (294–435 aa)
# [28] = target: B1
binder,measurement,setting,value
B1,koff,R14 [1],0.0039 s⁻¹
same,koff,R17 [2],0.0024 s⁻¹
same,Kd,S10 [3],0.28 nM
same,koff,S10 [3],0.0018 s⁻¹
same,Kd,R10 [4],0.43 nM
same,koff,R10 [4],0.0012 s⁻¹
same,Kd,S02 [5],0.75 nM
same,koff,S02 [5],0.0035 s⁻¹
same,Kd,S15 [6],0.44 nM
same,koff,S15 [6],0.00098 s⁻¹
same,koff,S08 [7],0.0054 s⁻¹
same,koff,R07 [8],0.0011 s⁻¹
same,Kd,R14 [9],2.7 nM
same,Kd,R17 [10],2.4 nM
same,Kd,S10 [11],0.3 nM
same,Kd,R10 [12],0.4 nM
same,Kd,S02 [13],0.8 nM
same,Kd,S15 [14],0.4 nM
same,Kd,S08 [15],2.4 nM
same,Kd,R07 [16],2 nM
"Fab C04 (Fab, V domains shown) VH: EVQLVESGGGLVQPGGSLRLSCAASGFNISSSYIHWVRQAPGKGLEWVASIYSSYGYTYYADSVKGRFTISADTSKNTAYLQMNSLRAEDTAVYYCARWWASVGGAGGGLDYWGQGTLVTVSS VL: DIQMTQSPSSLSASVGDRVTITCRASQSVSSAVAWYQQKPGKAPKLLIYSASSLYSGVPSRFSGSRSGTDFTLTISSLQPEDFATYYCQQGYGWLITFGQGTKVEIK",koff,[17],0.0064 s⁻¹
same,Kd,[18],2.9 nM
same,Kd,[19],4.4 nM
same,Kd,[20],7.3 nM
same,koff,[21],0.0055 s⁻¹
same,koff,[22],0.007 s⁻¹
"Fab S11 (Fab, V domains shown) VH: EVQLVESGGGLVQPGGSLRLSCAASGFNISSSYIHWVRQAPGKGLEWVASIYSSYGYTYYADSVKGRFTISADTSKNTAYLQMNSLRAEDTAVYYCARWWITFGGAGGGLDYWGQGTLVTVSS VL: DIQMTQSPSSLSASVGDRVTITCRASQSVSSAVAWYQQKPGKAPKLLIYSASSLYSGVPSRFSGSRSGTDFTLTISSLQPEDFATYYCQQGYAWRNTFGQGTKVEIK",koff,[23],0.00081 s⁻¹
same,koff,[24],0.00054 s⁻¹
same,Kd,[25],0.2 nM
same,Kd,[26],0.4 nM
same,Kd,[27],0.21 nM
same,Kd,[28],0.38 nM
